Data reported in patent publication US20060134087A1, “ITI-D1 Kunitz domain mutants as hNE inhibitors” (Dyax Corp., priority 1988, published 2006).

How the values were obtained:
hNE [1] = target: T1, hNE (Homo sapiens, UniProt P08246); test: pH stability, residual hNE inhibitory activity; type: physicochemical; settings: 37° C., 18 hours; for pH stability: pH 1 to pH 10, 1 μM; for Percent Residual hNE Inhibitory Activity: 1 μM protein
T1 sequence (P08246 30-267): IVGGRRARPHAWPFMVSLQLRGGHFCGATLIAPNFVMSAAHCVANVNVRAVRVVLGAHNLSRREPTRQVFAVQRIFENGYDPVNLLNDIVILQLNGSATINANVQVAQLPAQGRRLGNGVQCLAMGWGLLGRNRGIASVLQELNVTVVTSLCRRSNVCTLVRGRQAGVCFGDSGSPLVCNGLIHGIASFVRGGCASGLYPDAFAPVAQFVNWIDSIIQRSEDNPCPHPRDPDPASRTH
Protocol: The stability of the proteins to exposure to pH conditions in the range of pH 1 to pH 10 was assessed by maintaining the inhibitors in buffers of defined pH at 37° C. for 18 hours and determining the residual hNE inhibitory activity in the standard hNE-inhibition assay. Proteins were incubated at a concentration of 1 μM. The buffers shown in Table 4 were formulated as described (STOL90) and used in the pH ranges indicated: […]
Proteins were incubated at 37° C. for 18 hours in buffers of defined pH (see text). In all cases protein concentrations were 1 μM. At the end of the incubation period, aliquots of the reactions were diluted and residual hNE-inhibition activity determined.

hNE [2] = target: T1, hNE; test: Storage stability of purified inhibitor stock solutions; type: physicochemical
Protocol: Residual ammonium sulfate was removed from the EPI-HNE-2 preparation by ion exchange chromatography. The solution from the ammonium sulfate precipitation step was applied to a strong cation-exchange column (50 ml bed volume Macroprep 50S) (Bio-Rad Laboratories, Inc, Hercules, Calif.) previously equilibrated with 10 mM NaCitrate, pH=3.5. After loading, the column was washed with 300 ml of 10 mM NaCitrate, pH=3.5. EPI-HNE-2 was then batch-eluted from the column with 300 ml of 50 mM NH4OAc, pH=6.2. Fractions containing EPI-HNE-2 activity were pooled and the resulting solution was lyophilized. The dried protein powder was dissolved in 50 ml dH2O and the solution was passed through a 0.2μ filter (#4192, Gelman Sciences, Ann Arbor, Mich.). The concentration of the active inhibitor in the final stock solution was determined to be 2 mM (13.5 mg/ml).
The lyophilized protein powder was dissolved in 26 ml dH2O and the solution was passed through a 0.2μ filter (#4912, Gelman Sciences, Ann Arbor, Mich.). […] EPI-HNE-3 stored in water solution (without any buffering) deteriorated when kept at 4° C.

Substance	pH stability (hNE [1])	Percent Residual hNE Inhibitory Activity (hNE [1]; Incubation pH 1.0) [%]	Percent Residual hNE Inhibitory Activity (hNE [1]; Incubation pH 2.0) [%]	Percent Residual hNE Inhibitory Activity (hNE [1]; Incubation pH 3.0) [%]	Percent Residual hNE Inhibitory Activity (hNE [1]; Incubation pH 4.0) [%]	Percent Residual hNE Inhibitory Activity (hNE [1]; Incubation pH 5.5) [%]	Percent Residual hNE Inhibitory Activity (hNE [1]; Incubation pH 6.0) [%]	Percent Residual hNE Inhibitory Activity (hNE [1]; Incubation pH 6.5) [%]	Percent Residual hNE Inhibitory Activity (hNE [1]; Incubation pH 7.0) [%]	Percent Residual hNE Inhibitory Activity (hNE [1]; Incubation pH 7.5) [%]	Percent Residual hNE Inhibitory Activity (hNE [1]; Incubation pH 8.0) [%]	Percent Residual hNE Inhibitory Activity (hNE [1]; Incubation pH 8.5) [%]	Percent Residual hNE Inhibitory Activity (hNE [1]; Incubation pH 9.4) [%]	Percent Residual hNE Inhibitory Activity (hNE [1]; Incubation pH 10.0) [%]	activity after storage (hNE [2]; stock solution 250 μM, −70° C., more than six months)	material active after storage (hNE [2]; water solution without buffering, 4° C., five months)	activity after storage (hNE [2]; stock solution 2 mM, 4° C. and −70° C., more than 11 months)
EPI-HNE-3: ITI-D2(3-58) with R15I, I18F, Q19P, L20R; SEQ ID NO 026 (AACNLPIVRGPCIAFFPRWAFDAVKGKCVLFPYGGCQGNGNKFYSEKECREYCGVP; Epi-HNE-3)	stable when incubated at low pH, but showed some loss of activity at high pH	97	97	100	102	99	103	99	103	87	84	68	44	27	no loss of activity	about 70%	
EPI-HNE-2: EPI-HNE-1 with four additional residues EAEA at the amino terminus, SEQ ID NO 008	stable at all pH values tested	98	97	101	101	99			103			104		102			no loss in activity
